{"source": "patent US20040248198A1", "about": "(ST JUDE CHILDREN S RESEARCH HOSPITAL, published 2004)", "binders": {"B1": {"name": "41-55 (peptide)", "peptide": "AFVNMLLRLERILRR", "modifications": "not fully specified", "notes": "also called mouse p19Arf library peptide, residues 41-55"}, "B2": {"name": "A1 peptide (human p14ARF 1-14, SEQ ID NO:26, MVRRFLVTLRIRRA) (peptide)", "peptide": "Ac-MVRRFLVTLRIRRA-NH2", "notes": "Synthetic peptide; also called human A1 (1-14)"}, "B3": {"name": "H1 peptide (Hdm2 240-254, SEQ ID NO:27, SVSDQFSVEFEVESL) (peptide)", "peptide": "Ac-SVSDQFSVEFEVESL-NH2", "notes": "Synthetic peptide"}, "B4": {"name": "11-25 (peptide)", "peptide": "IQRAGRPLQERVFLV", "modifications": "not fully specified", "notes": "also called mouse p19Arf library peptide, residues 11-25"}}, "key": {"His-tagged Hdm2 210-304": {"target": "T1, His-tagged Hdm2 210-304 (human, UniProt Q00987 210-304)", "T1 construct": "not shown: thrombin-cleavable poly-His tag from pET28a", "T1 sequence (Q00987 210-304)": "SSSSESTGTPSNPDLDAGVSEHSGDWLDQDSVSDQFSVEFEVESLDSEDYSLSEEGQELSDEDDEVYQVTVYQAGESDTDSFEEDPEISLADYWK", "assay": "SPR (Biacore), His-tagged Hdm2 210-304 captured by anti-His antibody, mouse Arf peptide as analyte, reference cell subtracted", "method": "Surface Plasmon Resonance. Binding studies were performed using a Biacore 3000 surface plasmon resonance (SPR) instrument (Biacore, Inc.). A Tetra-His™ Antibody (Qiagen, Inc.; Cat. #34670) was covalently attached to a carboxymethylated gold surface (C-1 chip; Biacore, Inc.). The carboxymethyl groups on the surface were activated with N-ethyl-N-(3-dimethylaminopropyl) carbodiimide (EDC) and N-hydroxysuccinimide (NHS) and the antibody was attached at pH 7.4 in 20 mM sodium phosphate buffer, 150 mM NaCl (PBS). Reactive sites remaining on the surface were blocked by reaction with ethanolamine. The His-tagged ligand was attached to the antibody by injecting a […] solution of the ligand in 10 mM HEPES, 150 mM NaCl, pH 7.4 (HBS-N buffer, Biacore) at a flow rate of 10 μL/Min through the flow cell. A reference cell was prepared similarly except that no His-tagged ligand was added. Binding was measured by flowing the non-His-tagged analyte through the reference and ligand-containing flow cells in sequence. Prior to injection of ligands, the chip surfaces were equilibrated in HBS-N buffer. Changes in the SPR response due to solvent differences and the injection process were monitored by injection of HBS-N buffer alone. Regeneration of the chip surface to remove bound analyte and ligand was accomplished by two 100 μL injections of 10 mM glycine, pH 2.0 through both flow cells. Data reported is-the difference in SPR signal between the flow cell containing analyte and the reference cell. Duplicate injections were made and the SPR response values reported are the average of these two injections.\nTwo libraries of peptides 15 amino acids in length were synthesized based on the sequence of exon 1β of mouse p19^Arf and the entire sequence of human p14^Arf. The sequence for the first peptide in each library corresponded to the first 15 amino acids of the protein sequences. […] This approach yielded two libraries of overlapping peptides spanning mouse p19^Arf residues 1-64 and human p14^Arf residues 1-132. The ability of these peptides to bind Hdm2 fragments was determined using the surface plasmon resonance (SPR) technique with a Biacore 3000 instrument."}, "[1]": {"target": "B3", "assay": "CD and 1H NMR titration", "method": "(§1) CD spectra were recorded with an Aviv 62DS instrument in 5 mM potassium phosphate (pH 7.0) using a 1 mm cuvette. In FIG. 1A, A1 was 4.5 μM, molar ratios were: 1:0.0, 1:0.1, 1:0.6, 1:0.9, & 1:1.3. In FIG. 1B, H1 was 2.5 μM, molar ratios were: 1:0.2, 1:0.7, 1:1.0, & 1:1.3. Data was collected for 3 seconds in 1 nm steps and 10 scans were averaged for each spectrum. The appearance of a minimum in the CD spectra of the assemblies near […] and the increase in ellipticity near 200 nm is consistent with the formation of β-strand-containing structures.\n(§2) An end point was reached when the molar ratio of A1:H1 was 1:1. For example, further additions of the H1 peptide led to the appearance of disordered spectral features consistent with unbound, free H1 peptide (inset, FIG. 6a). The Fourier transform infrared (FT-IR) spectrum of the co-assemblies confirms the CD results and allows the β-structures to be classified as anti-parallel β-strands on the basis of the absorbances at 1618 cm-1 and 1679 cm-1 (FIG. 7) [Casal, H. L.; Kohler, U.; Mantsch, H. H., Biochim Biophys Acta 957:11-20 (1988)]. In summary, the individually disordered A1 and H1 peptides self-assemble into supramolecular structures comprised of anti-parallel β-strands."}, "[2]": {"target": "B2", "assay": "CD titration, H1 peptide added stepwise to A1 peptide", "method": "as §1, §2"}}, "note": "Where no end group is shown, it is not given here.", "data": [{"binder": "B1", "values": [{"measurement": "binding result", "setting": "His-tagged Hdm2 210-304", "result": "no binding (tested: not given)"}]}, {"binder": "B2", "values": [{"measurement": "molar ratio A1:H1 at the end point of the titration", "setting": "[1]", "result": 1, "unit": "mol A1 per mol H1"}]}, {"binder": "B3", "values": [{"measurement": "binding result", "setting": "[2]", "result": "binds"}]}, {"binder": "B4", "values": [{"measurement": "binding result", "setting": "His-tagged Hdm2 210-304", "result": "no binding (tested: not given)"}]}]}
